According to patent US20180344813A1, “ENGINEERED POLYPEPTIDES HAVING ENHANCED DURATION OF ACTION WITH REDUCED IMMUNOGENICITY” (priority 2016, published 2018):
Where two headings read alike, the source gives them in different places.

Key:
[1] = test system: IgG molecules present in normal human sera; assay: Serum response analysis: ELISA of human serum IgG binding to albumin binding polypeptides
Method: Each serum sample was tested as a singlet.

[2] = test system: CD3+ CD4+ T cells

Compound	reactivity with serum IgG (average OD-value and percentage of serum with IgG binding) ([1]; 126 positive human sera, diluted 50 times)	reactivity with serum IgG (average OD-value and percentage of serum with IgG binding) [1]	immunogenicity definition [2]	number of responding individuals [2]
CC[C@H](C)[C@H](NC(=O)[C@H](Cc1c[nH]cn1)NC(=O)[C@H](CC(C)C)NC(=O)[C@H](CCCCN)NC(=O)[C@H](CC(C)C)NC(=O)[C@H](C)NC(=O)[C@H](CCC(=O)O)NC(=O)[C@@H](NC(=O)CNC(=O)[C@H](CCC(=O)O)NC(=O)[C@@H](NC(=O)[C@@H](NC(=O)[C@H](CCCCN)NC(=O)[C@H](C)NC(=O)[C@H](CCCCN)NC(=O)[C@H](CC(N)=O)NC(=O)[C@@H](NC(=O)[C@H](CC(C)C)NC(=O)[C@H](CCCNC(=N)N)NC(=O)[C@H](CCCCN)NC(=O)[C@H](Cc1ccc(O)cc1)NC(=O)[C@H](Cc1ccccc1)NC(=O)[C@H](CC(=O)O)NC(=O)[C@H](CO)NC(=O)[C@@H](NC(=O)CNC(=O)[C@H](Cc1ccc(O)cc1)NC(=O)[C@H](CCCCN)NC(=O)[C@H](CC(=O)O)NC(=O)[C@H](CC(C)C)NC(=O)[C@H](CCC(=O)O)NC(=O)[C@H](CCCNC(=N)N)NC(=O)[C@H](CC(N)=O)NC(=O)[C@H](C)NC(=O)[C@H](CC(C)C)NC(=O)[C@@H](NC(=O)[C@H](CCCCN)NC(=O)[C@H](C)NC(=O)[C@H](CCC(=O)O)NC(=O)[C@H](C)NC(=O)[C@H](CC(C)C)NC(=O)[C@H](CO)NC(=O)[C@H](CO)NC(=O)CN)C(C)C)C(C)C)[C@@H](C)CC)[C@@H](C)O)C(C)C)C(C)C)C(=O)N[C@@H](CC(C)C)C(=O)N[C@@H](C)C(=O)N[C@@H](C)C(=O)N[C@@H](CC(C)C)C(=O)N1CCC[C@H]1C(=O)O [PEP06923, reference compound]	highest			
CC[C@H](C)[C@H](NC(=O)[C@H](C)NC(=O)[C@H](CC(=O)O)NC(=O)[C@H](CCCCN)NC(=O)[C@H](CC(C)C)NC(=O)[C@H](C)NC(=O)[C@H](CCC(=O)O)NC(=O)[C@@H](NC(=O)CNC(=O)[C@H](CCC(=O)O)NC(=O)[C@@H](NC(=O)[C@@H](NC(=O)[C@H](CCCCN)NC(=O)[C@H](C)NC(=O)[C@H](CCCCN)NC(=O)[C@H](CC(=O)O)NC(=O)[C@@H](NC(=O)[C@H](CC(C)C)NC(=O)[C@H](CCCNC(=N)N)NC(=O)[C@H](CCCCN)NC(=O)[C@H](Cc1ccc(O)cc1)NC(=O)[C@H](Cc1ccccc1)NC(=O)[C@H](CC(=O)O)NC(=O)[C@H](CO)NC(=O)[C@@H](NC(=O)CNC(=O)[C@H](Cc1ccc(O)cc1)NC(=O)[C@H](CCCCN)NC(=O)[C@H](CC(=O)O)NC(=O)[C@H](CC(C)C)NC(=O)[C@H](CCC(=O)O)NC(=O)[C@H](C)NC(=O)[C@H](CC(N)=O)NC(=O)[C@H](C)NC(=O)[C@H](C)NC(=O)[C@H](CCC(=O)O)NC(=O)[C@H](CCCCN)NC(=O)[C@H](C)NC(=O)[C@H](CO)NC(=O)[C@H](C)NC(=O)[C@H](CC(C)C)NC(=O)[C@H](CO)NC(=O)[C@H](CO)NC(=O)CN)C(C)C)[C@@H](C)CC)[C@@H](C)O)C(C)C)C(C)C)C(=O)N[C@@H](CC(C)C)C(=O)N[C@@H](C)C(=O)N[C@@H](C)C(=O)N[C@@H](CC(C)C)C(=O)N1CCC[C@H]1C(=O)O [PEP07844]		highest		
CC[C@H](C)[C@H](NC(=O)[C@H](CCC(=O)O)NC(=O)[C@H](CC(=O)O)NC(=O)[C@@H](NC(=O)[C@H](CC(C)C)NC(=O)[C@H](C)NC(=O)[C@H](CCCCN)NC(=O)[C@@H](NC(=O)CNC(=O)[C@H](CCC(=O)O)NC(=O)[C@@H](NC(=O)[C@@H](NC(=O)[C@H](CCCCN)NC(=O)[C@H](C)NC(=O)[C@H](CC(N)=O)NC(=O)[C@H](CC(N)=O)NC(=O)[C@@H](NC(=O)[C@H](CC(C)C)NC(=O)[C@H](CC(N)=O)NC(=O)[C@H](CCCCN)NC(=O)[C@H](Cc1ccc(O)cc1)NC(=O)[C@H](Cc1ccc(O)cc1)NC(=O)[C@H](CC(=O)O)NC(=O)[C@H](CO)NC(=O)[C@@H](NC(=O)CNC(=O)[C@H](Cc1ccc(O)cc1)NC(=O)[C@H](CCCCN)NC(=O)[C@H](CC(=O)O)NC(=O)[C@H](CC(C)C)NC(=O)[C@H](CCC(=O)O)NC(=O)[C@H](CCCNC(=N)N)NC(=O)[C@H](CC(N)=O)NC(=O)[C@H](C)NC(=O)[C@H](CC(C)C)NC(=O)[C@@H](NC(=O)[C@H](CCCCN)NC(=O)[C@H](C)NC(=O)[C@H](CCC(=O)O)NC(=O)[C@H](C)NC(=O)[C@H](CC(C)C)NC(=O)CN)C(C)C)C(C)C)[C@@H](C)CC)[C@@H](C)O)C(C)C)C(C)C)[C@@H](C)CC)C(=O)N[C@@H](CC(C)C)C(=O)N[C@@H](C)C(=O)N[C@@H](C)C(=O)N[C@@H](CC(C)C)C(=O)N1CCC[C@H]1C(=O)O [PEP07913, reference compound]		highest		
CC[C@H](C)[C@H](NC(=O)[C@H](C)NC(=O)[C@H](CC(=O)O)NC(=O)[C@H](CCCCN)NC(=O)[C@H](CC(C)C)NC(=O)[C@H](C)NC(=O)[C@H](CCC(=O)O)NC(=O)[C@@H](NC(=O)CNC(=O)[C@H](CCC(=O)O)NC(=O)[C@@H](NC(=O)[C@@H](NC(=O)[C@H](CCCCN)NC(=O)[C@H](C)NC(=O)[C@H](CCCCN)NC(=O)[C@H](CC(=O)O)NC(=O)[C@@H](NC(=O)[C@H](CC(C)C)NC(=O)[C@H](CCCNC(=N)N)NC(=O)[C@H](CCCCN)NC(=O)[C@H](Cc1ccc(O)cc1)NC(=O)[C@H](Cc1ccccc1)NC(=O)[C@H](CC(=O)O)NC(=O)[C@H](CO)NC(=O)[C@@H](NC(=O)CNC(=O)[C@H](Cc1ccc(O)cc1)NC(=O)[C@H](CO)NC(=O)[C@H](CC(=O)O)NC(=O)[C@H](CC(C)C)NC(=O)[C@H](CCC(=O)O)NC(=O)[C@H](C)NC(=O)[C@H](CC(N)=O)NC(=O)[C@H](C)NC(=O)[C@H](C)NC(=O)[C@H](CCC(=O)O)NC(=O)[C@H](CCCCN)NC(=O)[C@H](C)NC(=O)[C@H](CCC(=O)O)NC(=O)[C@H](C)NC(=O)[C@H](CC(C)C)NC(=O)CN)C(C)C)[C@@H](C)CC)[C@@H](C)O)C(C)C)C(C)C)C(=O)N[C@@H](CC(C)C)C(=O)N[C@@H](C)C(=O)N[C@@H](C)C(=O)N[C@@H](CC(C)C)C(=O)N1CCC[C@H]1C(=O)O [PEP07914]		least reactivity	non-immunogenic	2
CC[C@H](C)[C@H](NC(=O)[C@H](C)NC(=O)[C@H](CC(=O)O)NC(=O)[C@H](CCCCN)NC(=O)[C@H](CC(C)C)NC(=O)[C@H](C)NC(=O)[C@H](CCC(=O)O)NC(=O)[C@@H](NC(=O)CNC(=O)[C@H](CCC(=O)O)NC(=O)[C@@H](NC(=O)[C@@H](NC(=O)[C@H](CCCCN)NC(=O)[C@H](C)NC(=O)[C@H](CCCCN)NC(=O)[C@H](CC(=O)O)NC(=O)[C@@H](NC(=O)[C@H](CC(C)C)NC(=O)[C@H](CCCNC(=N)N)NC(=O)[C@H](CCCCN)NC(=O)[C@H](Cc1ccc(O)cc1)NC(=O)[C@H](Cc1ccccc1)NC(=O)[C@H](CC(=O)O)NC(=O)[C@H](CO)NC(=O)[C@@H](NC(=O)CNC(=O)[C@H](Cc1ccc(O)cc1)NC(=O)[C@H](CSC1CC(=O)N(CCNC(=O)CN2CCN(CC(=O)O)CCN(CC(=O)O)CCN(CC(=O)O)CC2)C1=O)NC(=O)[C@H](CC(=O)O)NC(=O)[C@H](CC(C)C)NC(=O)[C@H](CCC(=O)O)NC(=O)[C@H](C)NC(=O)[C@H](CC(N)=O)NC(=O)[C@H](C)NC(=O)[C@H](C)NC(=O)[C@H](CCC(=O)O)NC(=O)[C@H](CCCCN)NC(=O)[C@H](C)NC(=O)[C@H](CO)NC(=O)[C@H](C)NC(=O)[C@H](CC(C)C)NC(=O)CN)C(C)C)[C@@H](C)CC)[C@@H](C)O)C(C)C)C(C)C)C(=O)N[C@@H](CC(C)C)C(=O)N[C@@H](C)C(=O)N[C@@H](C)C(=O)N[C@@H](CC(C)C)C(=O)N1CCC[C@H]1C(=O)O (stereo partly shown) [PEP07968]		least reactivity	non-immunogenic	1
Keyhole Limpet Hemocyanin [KLH, reference compound]				51
